Biological target: his tagged cMET (UniProt P08581)
Experiment: BLI (Fortebio Octet), antibody loaded on Protein A tips, his tagged cMET in solution, 1:1 fit

Onartuzumab (antibody)
Kd: 1.2 nM

From US20140294834A1
